In the MegaScale stability set (Tsuboyama et al. 2023):

B1: HEEH_KT_rd6_3632 (parent)
chain: DAEELIELVERALKEGREIILLGVRITSEEAGKWFIEWIRRFL
B2: 6NMW (parent)
chain: QGDIVVALYPYDGIHPDDLSFKKGEKMKVLEEHGEWWKAKSLLTKKEGFIPSNYVAKLN

Variants of: B1
Assay: folding stability dG (cDNA display proteolysis); higher = more stable
Details: PBS, room temperature

Folding stability dG [kcal/mol], by site and new letter:
L43: M 3.81; T 3.24; Y 3.81; R 3.03; I 3.61; N 2.97; H 3.17; G 3.03; W 3.89; P 2.62; Q 3.22; S 3.17; K 3.09; V 3.48

Variants of: B2
Assay: as above
Details: PBS, room temperature

Folding stability dG [kcal/mol], by site and new letter:
I4: P -0.054; S 0.94; Q 1.21; C 2.58; Y 2.98; F 2.76; K 0.841; R 0.874; H 1.74; M 2.52; E 1.53; G 0.464; T 2.35; W 2.71; N 0.755; V 3.08; A 0.908; D 1.12; L 3
P16: V 3.11; R 2.87; F 2.73; G 2.75; A 3.29; M 2.81; W 2.79; C 3.56; I 3; K 3.4; H 2.92; N 2.68; Q 3.08; L 2.7; Y 2.59; S 2.98; T 2.87; D 3.22
G13: L 0.825; N 1.32; S 3.39; M 1.91; I 0.929; T 1.74; P 2.3; C 1.96; V 1.14; Q 2.01; W 0.736; R 2.26; E 1.2; Y 0.268; K 2.6; F 0.38; H 0.829; D 0.145
D18: N 2.88; W 3.29; M 3.67; C 4.07; L 2.84; Q 4.95; R 3.15; V 3.08; G 3.33; F 4.07; K 3.08; Y 4.04; T 3.97; I 2.69; E 4.6; P 0.221; H 4.91; A 3.61; S 3.94
Q1: N 3.69; H 3.79; M 3.74; P 3.96; G 3.67; E 3.97; L 4.29; K 4.1; D 3.76; A 3.87; C 4.65; R 3.79; Y 4.04; S 3.89; W 4.06; T 4.18; F 3.8
L19: D -0.824; A -0.055; F 1.02; I 1.46; C 0.728
L8: I 3.04; A 0.801; E 0.697; S 0.987; R 1.94; K 2.3; D -0.146; N 1.23; Y 1.02; M 2.78; Q 1.62; W 1.21; H 1.06; C 3.47; G 0.062; V 2.29; F 1.24; T 1.24
I14: Q 3.67; G 2.9; C 4.14; D 2.68; H 3.13; S 3.09; T 3.68; K 3.81; W 2.68; V 3.97; M 3.36; F 2.99; P 2.57; Y 3.08; E 2.98; A 3.22; N 3.02; L 3.51
V6: C 3.01; Y 3.49; H 1.5; T 2.18; E 2.18; N 0.282; R 1.9; D -0.164; K 1.52; L 2.18; F 2.89; M 2.59; S 1.15; W 2.05; Q 2.01; I 4.06; A 1.29; G 0.392
V5: K -0.356; M 1.65; A 2.41; G -0.073; H 1.41; C 3.86; T 0.383; W 4.11; F 3.21; R 0.357; Y 4.22; Q -0.613; I 2.37; E -0.712; L 1.66; S 0.271
D12: T 4.32; C 4.27; K 4.34; W 3.78; M 3.84; Q 4.13; A 3.85; P 3.14; G 2.7; S 3.78; F 3.95; N 3.98; V 4.41; Y 3.86; L 3.69; R 4.19; H 4.08; I 4.38
D3: S 4.3; N 3.87; Q 4.27; Y 4.84; V 4.37; A 4.25; E 3.77; F 4.91; L 4.43; T 4.52; H 4.61; M 4.59; G 3.47; I 4.5; C 4.72; R 4.02; K 4.12; P 3.09
P10: T 4.18; M 2.75; F 2.47; H 3.93; K 3.78; C 3.89; N 4.84; R 4.08; V 2.27; S 4.61; E 3.31; I 1.94; Q 3.77; L 2.23; A 4.23; Y 2.66; G 3.56; W 2.74
G2: L 3.21; E 3.29; W 3.93; A 3.27; F 3.9; H 3.74; M 3.38; I 3.12; R 3; K 2.9; Y 3.95; D 3.46; T 3.29; S 3.54; Q 3.21; P 2.98; C 4.54; V 3.15; N 3.5
Y9: V 2.5; M 3.43; W 3.66; G 1.46; R 4.07; E 2.37; D 1.08; C 4.44; T 1.87; I 2.72; L 3.06; A 2.74; S 1.95; H 2.81; N 1.61; K 3.61; Q 3.15; F 3.72
D17: T 3.68; K 3.5; C 4.33; I 2.2; W 4.86; R 4.21; A 3.37; F 3.71; P 2.35; E 3.72; N 3.83; Y 3.92; L 3.6; Q 3.88; M 3.47; V 2.23; S 3.63; H 3.78; G 4.77
Y11: F 3.93; A -0.375; Q -0.356; K 0.796; W 4.27; N 0.567; M 0.669; V 0.147; I 0.264; R 2.25; S 0.369; E -0.944; C 1.5; H 1.71; L 0.851
A7: L -0.675; T 1.07; G 2.64; C 1.42; Y -0.494; M 0.441; F -0.602; E 0.11; I -0.263; S 1.39; V 0.268
H15: V 1.77; G 3.99; C 4.24; A 3.22; E 2.54; N 3.65; R 3.93; M 2.85; I 1.63; K 3.48; W 3.39; Y 3.75; F 3.5; P 3.63; Q 3.03; S 3.26; L 2.87; D 2.54
